Legend:
[1] = biological target: the molecule itself; experiment: SEC-MALS; HelQ with ATP-Mg2+: pre-incubated in 5 mM MgCl2 and 5 mM ATP at 37°C for 10 min, running buffer with 0.2 mM ATP and 0.2 mM MgCl2, Superdex-200
[2] = biological target: the molecule itself; experiment: SEC-MALS; HelQ apoenzyme, 200 ul of 2.4 uM monomer, Superdex-200, 50 mM Tris-HCl pH 8.0, 150 mM NaCl, 10% glycerol, pre-incubated 10 min at 37°C; no ATP-Mg2+
[3] = biological target: the molecule itself; experiment: SEC; analytical gel filtration of C-HelQ in ATP-Mg2+ and ssDNA, Superdex-200, against mass standards

| Protein | stoichiometry N [1] | stoichiometry N [2] | stoichiometry N [3] |
| --- | --- | --- | --- |
| HelQ helicase, full length, human (enzyme, UniProt Q8TDG4 1-1101, looked up, human HelQ DNA repair helicase, full length; Tetramer as apoenzyme and dimer with ATP-Mg2+ by SEC-MALS; also called HelQ apoenzyme; His-SUMO-SF-tagged HelQ; source: SF9 insect cells (Bac-to-Bac baculovirus), purified (ammonium sulphate, Ni-NTA, heparin, Q-sepharose); not shown: His6, N-terminal, kept; SUMO, N-terminal, kept; StrepII-Flag, N-terminal, kept) MDECGSRIRRRVSLPKRNRPSLGCIFGAPTAAELVPGDEGKEEEEMVAENRRRKTAGVLPVEVQPLLLSDSPECLVLGGGDTNPDLLRHMPTDRGVGDQPNDSEVDMFGDYDSFTENSFIAQVDDLEQKYMQLPEHKKHATDFATENLCSESIKNKLSITTIGNLTELQTDKHTENQSGYEGVTIEPGADLLYDVPSSQAIYFENLQNSSNDLGDHSMKERDWKSSSHNTVNEELPHNCIEQPQQNDESSSKVRTSSDMNRRKSIKDHLKNAMTGNAKAQTPIFSRSKQLKDTLLSEEINVAKKTVESSSNDLGPFYSLPSKVRDLYAQFKGIEKLYEWQHTCLTLNSVQERKNLIYSLPTSGGKTLVAEILMLQELLCCRKDVLMILPYVAIVQEKISGLSSFGIELGFFVEEYAGSKGRFPPTKRREKKSLYIATIEKGHSLVNSLIETGRIDSLGLVVVDELHMIGEGSRGATLEMTLAKILYTSKTTQIIGMSATLNNVEDLQKFLQAEYYTSQFRPVELKEYLKINDTIYEVDSKAENGMTFSRLLNYKYSDTLKKMDPDHLVALVTEVIPNYSCLVFCPSKKNCENVAEMICKFLSKEYLKHKEKEKCEVIKNLKNIGNGNLCPVLKRTIPFGVAYHHSGLTSDERKLLEEAYSTGVLCLFTCTSTLAAGVNLPARRVILRAPYVAKEFLKRNQYKQMIGRAGRAGIDTIGESILILQEKDKQQVLELITKPLENCYSHLVQEFTKGIQTLFLSLIGLKIATNLDDIYHFMNGTFFGVQQKVLLKEKSLWEITVESLRYLTEKGLLQKDTIYKSEEEVQYNFHITKLGRASFKGTIDLAYCDILYRDLKKGLEGLVLESLLHLIYLTTPYDLVSQCNPDWMIYFRQFSQLSPAEQNVAAILGVSESFIGKKASGQAIGKKVDKNVVNRLYLSFVLYTLLKETNIWTVSEKFNMPRGYIQNLLTGTASFSSCVLHFCEELEEFWVYRALLVELTKKLTYCVKAELIPLMEVTGVLEGRAKQLYSAGYKSLMHLANANPEVLVRTIDHLSRRQAKQIVSSAKMLLHEKAEALQEEVEELLRLPSDFPGAVASSTDKA | 2 | 4 | – |
| C-HelQ, HelQ 'core' helicase (826 amino acids) (domain or fragment, human, UniProt Q8TDG4 275-1101, looked up, human HelQ helicase core: the 826 amino acids that match Hel308; excludes the 274 amino acid N-terminal region; 85 kDa; The start at 275 follows from the excluded 274 residue N-terminal region; also called core HelQ helicase; source: Escherichia coli, purified (as described for HelQ)) GNAKAQTPIFSRSKQLKDTLLSEEINVAKKTVESSSNDLGPFYSLPSKVRDLYAQFKGIEKLYEWQHTCLTLNSVQERKNLIYSLPTSGGKTLVAEILMLQELLCCRKDVLMILPYVAIVQEKISGLSSFGIELGFFVEEYAGSKGRFPPTKRREKKSLYIATIEKGHSLVNSLIETGRIDSLGLVVVDELHMIGEGSRGATLEMTLAKILYTSKTTQIIGMSATLNNVEDLQKFLQAEYYTSQFRPVELKEYLKINDTIYEVDSKAENGMTFSRLLNYKYSDTLKKMDPDHLVALVTEVIPNYSCLVFCPSKKNCENVAEMICKFLSKEYLKHKEKEKCEVIKNLKNIGNGNLCPVLKRTIPFGVAYHHSGLTSDERKLLEEAYSTGVLCLFTCTSTLAAGVNLPARRVILRAPYVAKEFLKRNQYKQMIGRAGRAGIDTIGESILILQEKDKQQVLELITKPLENCYSHLVQEFTKGIQTLFLSLIGLKIATNLDDIYHFMNGTFFGVQQKVLLKEKSLWEITVESLRYLTEKGLLQKDTIYKSEEEVQYNFHITKLGRASFKGTIDLAYCDILYRDLKKGLEGLVLESLLHLIYLTTPYDLVSQCNPDWMIYFRQFSQLSPAEQNVAAILGVSESFIGKKASGQAIGKKVDKNVVNRLYLSFVLYTLLKETNIWTVSEKFNMPRGYIQNLLTGTASFSSCVLHFCEELEEFWVYRALLVELTKKLTYCVKAELIPLMEVTGVLEGRAKQLYSAGYKSLMHLANANPEVLVRTIDHLSRRQAKQIVSSAKMLLHEKAEALQEEVEELLRLPSDFPGAVASSTDKA | – | – | 2 |

Reference: article PMC8210318, “The HelQ human DNA repair helicase utilizes a PWI-like domain for DNA loading through interaction with RPA, triggering DNA unwinding by the HelQ helicase core” (NAR Cancer, 2021)
